Patent US8962263B2, “Methods and compositions for detecting the activation state of multiple proteins in single cells” (The Board of Trustees of the Leland Stanford Junior …, priority 2001, dated 2015)
Like-named read-outs stand apart in the source and are kept apart here.

B1: ICAM-2: biochemically purified soluble human ICAM-2 protein from retrovirally transduced NIH3T3 cells; ICAM-2-FC fusion also used (protein, UniProt P13598 25-223, looked up)
extracellular domain: KVFEVHVRPKKLAVEPKGSLEVNCSTTCNQPEVGGLETSLDKILLDEQAQWKHYLVSNISHDTVLQCHFTCSGKQESMNSNVSVYQPPRQVILTLQPTLVAVGKSFTIECRVPTVEPLDSLTLFLFRGNETLHYETFGKAAPAPQEATATFNSTADREDGHRNFSCLAVLDLMSRGGNIFHKHSAPKMLEIYEPVSDSQ
modifications: extracellular domain
notes: biochemically purified soluble human ICAM-2 protein from retrovirally transduced NIH3T3 cells; ICAM-2-FC fusion also used

Tests used:
cell surface LFA-1 = target: T1, cell surface LFA-1 (Homo sapiens, UniProt P20701); assay: ICAM-2-FITC surface binding on Jurkat cells by flow cytometry (single cell binding measurements)
T1 construct: within the physiological context of cell surface LFA-1; endogenous in cells; host or cells: Jurkat T cells
Method: A) Purified human ICAM-2, from retrovirally transduced NIH3T3, (see materials and methods) was tested for purity, size, and aggregate formation by native gel electrophoresis and gel filtration. Analysis of purified ICAM-2, from two different preps and ICAM2-FC from NSO cells. Molecular weight was calculated using relative distance migration from a molecular weight standard. Concentration was determined using serial dilutions of BSA as a standard. […] B) ICAM-2, ligand binding to cell surface as a function of time. 5×10^6, unstimulated and PMA stimulated (1, μg/ml, 30, min) Jurkat T cells were incubated with ICAM-2-FITC or LFA-1-FITC antibody (1, μg/ml) and subjected to time dependent flow cytometry. Mean fluorescence intensity was plotted per time of a gated homogenous cell population. Flow rate was maintained at 200-300, cells/second, with fluorescence intensity values acquired at 10, millisecond intervals for 1200, seconds. C) Flow cytometric analysis of ICAM-2-FITC and a-LFA-1-FITC surface binding on cytochalisin D treated (10, μM, 30, min) Jurkat cells at 37° C. and 4° C. D) Curve fit analysis of ICAM-2-FITC binding per 10^4, cells. Jurkat cells were incubated with ICAM-2-FITC at 37° C. for 30, min at indicated concentrations in 50, μL volume. Cells were washed 1×, and analyzed for mean fluorescent intensity (MFI) of 10^4, cells. Percent ICAM-2-FITC bound was calculated from the following equation: 100×[(MFI[×]−MFIunstained)/(MFI[saturated]−MFIunstained)] where [×]=ICAM-2-FITC concentration and [saturated]=concentration that saturated binding. Values were fit to the equation Y=m1*M0/(m2+M0) (see materials and methods).
Full length ICAM2 cDNA was obtained from Jurkat cells and cloned into retroviral vector PBM-Z-IN at the BamHI/Sal1 site as described (Perez et al., 2002). Human ICAM-2 was overexpressed in NIH3T3 cells by retroviral infection and harvested by immunoaffinity chromatography. ICAM-2 was affinity purified using a two step lysing procedure and subsequent purification on an anti-ICAM-2 solid support. […] Batch lysate of harvested supernatant was performed (4° C., for 2 hrs), and washed 4 times in buffer C (0.1% Tween-20, PBS pH 7.4). ICAM-2 protein was eluted by 4.5 M NaCl (in Tris pH 6.8), dialyzed overnight (in PBS pH 7.4, 0.001% azide, 0.01% glycerol, 4° C.), concentrated using size exclusion spin chromatography and stabilized using 0.01% glycerol. Anti-ICAM-2 solid support was re-equilibrated in buffer C, stored in 0.001% thimerosol and re-used up to 3 times. Purity was >98% as assessed by coomasie gel. […] Gel imaging was performed on a VersaDoc machine (Biorad) and analyzed using Quantity One quantitation software (Biorad). […]

LFA-1 = LFA-1 activation by mAb24-Alexa633 staining, flow cytometry; type: cell-based, human; conditions: Jurkat cells, agents 10 μM 30 min, PMA 1 μg/ml, prior to ICAM-2 10 μg/ml 30 min
Method: A) Confocal microscopy of actin and microtubule architecture upon ICAM-2, stimulus (10, μg/ml, 30, min) in Jurkat cells. Actin was stained by phalloidin-alexa633, and tubulin by taxol-alexa546. Inserts display enlarged cell image of representative treatment B) Flow cytometric staining for actin and microtubules as described above. C) Left: Fluorescence topography analysis of ICAM-2-FITC (1 μg/ml, time as indicated) surface distribution. Intensity color gradient depicts high and low fluorescent intensity values. Right: Confocal microscopy of ICAM-2-FITC surface binding (10 μg/ml, 30, min) and anti-β2-alexa568, (clone CTB104). D) Staining for ICAM-2-FITC surface binding (fluorescence intensity) and surface distribution (fluorescence pulse) in cytochalisin D treated Jurkat cells at 37° C. and 4° C. by flow cytometry. E) Values for ICAM-2-FITC fluorescence intensity per time-of-flight per cell as described in text. F) Flow cytometric staining for LFA-1 activation by mAb24-alexa633. Stimuli as indicated (10, μM, 30, min), PMA (1, μg/ml) prior to ICAM-2, stimulation (10, μg/ml, 30, min). Staining was performed at 37° C. G) Mean fluorescence intensity (MFI) values of mAb24-633, and ICAM-2, cluster values, computed as described above, as a function of time.
Intracellular and extracellular staining was performed as described (Perez and Nolan, 2002). Intracellular probes for active kinases were made by conjugating phospho-specific antibodies to the ALEXA FLUOR® dye series as described and used in phospho-protein optimized conditions (Perez and Nolan, 2002). Kinetic analyses was performed by direct application of fixation buffer in time synchronized 96-wells maintained at 37° C. Intracellular actin and microtubule staining was performed using phalloidin-Alexa633 and taxol-Alexa546 dyes (Molecular Probes). Adhesion and clustering assays were performed using ICAM-2-FITC as described in text. LFA-1 activation was assessed by either mAb24-Alexa633 or mAb24-Alexa546 conjugate, surface stained at 37° C. Flow cytometry data are representative of 3 independent experiments of 10^6 cells/sample. 10-50,000 events were collected and manually calibrated on a FACSCalibur™ machine. Data plotted in bar graph format is expressed as geometric mean fluorescence intensity (MFI) and normalized for isotype controls. Log ratios are defined as the MFI of stimulus to the MFI of unstimulated cells. Data was analyzed using Flowjo™ software (Treestar).

T1 sequence (P20701 26-1170): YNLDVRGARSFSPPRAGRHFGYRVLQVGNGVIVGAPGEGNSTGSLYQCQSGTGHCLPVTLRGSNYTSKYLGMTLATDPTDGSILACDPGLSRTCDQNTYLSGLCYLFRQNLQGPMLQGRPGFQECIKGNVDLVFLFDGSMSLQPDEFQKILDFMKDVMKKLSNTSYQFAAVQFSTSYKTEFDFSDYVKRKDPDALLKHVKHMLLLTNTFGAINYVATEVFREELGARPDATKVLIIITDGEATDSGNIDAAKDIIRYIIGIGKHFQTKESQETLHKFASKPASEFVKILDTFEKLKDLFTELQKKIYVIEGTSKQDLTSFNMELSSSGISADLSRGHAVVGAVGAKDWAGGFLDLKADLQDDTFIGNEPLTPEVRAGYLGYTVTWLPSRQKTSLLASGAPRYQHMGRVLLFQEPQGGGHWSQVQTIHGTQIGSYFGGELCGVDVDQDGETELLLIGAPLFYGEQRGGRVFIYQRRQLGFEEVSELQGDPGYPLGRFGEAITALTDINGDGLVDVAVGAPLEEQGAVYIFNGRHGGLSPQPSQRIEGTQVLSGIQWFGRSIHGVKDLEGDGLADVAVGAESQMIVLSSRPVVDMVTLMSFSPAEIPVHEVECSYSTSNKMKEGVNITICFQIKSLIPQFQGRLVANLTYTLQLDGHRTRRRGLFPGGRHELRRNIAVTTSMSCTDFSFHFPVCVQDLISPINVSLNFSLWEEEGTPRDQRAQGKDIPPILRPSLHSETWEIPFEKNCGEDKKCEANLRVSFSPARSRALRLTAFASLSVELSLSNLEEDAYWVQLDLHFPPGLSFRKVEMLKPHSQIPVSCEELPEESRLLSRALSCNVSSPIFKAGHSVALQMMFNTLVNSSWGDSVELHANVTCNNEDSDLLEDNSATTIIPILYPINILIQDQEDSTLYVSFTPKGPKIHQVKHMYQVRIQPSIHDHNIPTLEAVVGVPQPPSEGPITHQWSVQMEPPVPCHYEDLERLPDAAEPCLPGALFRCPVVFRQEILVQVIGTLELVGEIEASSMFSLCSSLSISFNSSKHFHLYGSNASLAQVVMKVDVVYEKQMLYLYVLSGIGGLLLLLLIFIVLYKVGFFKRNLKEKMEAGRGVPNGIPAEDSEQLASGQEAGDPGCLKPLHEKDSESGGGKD
T1 sequence (P05107 23-769 partner): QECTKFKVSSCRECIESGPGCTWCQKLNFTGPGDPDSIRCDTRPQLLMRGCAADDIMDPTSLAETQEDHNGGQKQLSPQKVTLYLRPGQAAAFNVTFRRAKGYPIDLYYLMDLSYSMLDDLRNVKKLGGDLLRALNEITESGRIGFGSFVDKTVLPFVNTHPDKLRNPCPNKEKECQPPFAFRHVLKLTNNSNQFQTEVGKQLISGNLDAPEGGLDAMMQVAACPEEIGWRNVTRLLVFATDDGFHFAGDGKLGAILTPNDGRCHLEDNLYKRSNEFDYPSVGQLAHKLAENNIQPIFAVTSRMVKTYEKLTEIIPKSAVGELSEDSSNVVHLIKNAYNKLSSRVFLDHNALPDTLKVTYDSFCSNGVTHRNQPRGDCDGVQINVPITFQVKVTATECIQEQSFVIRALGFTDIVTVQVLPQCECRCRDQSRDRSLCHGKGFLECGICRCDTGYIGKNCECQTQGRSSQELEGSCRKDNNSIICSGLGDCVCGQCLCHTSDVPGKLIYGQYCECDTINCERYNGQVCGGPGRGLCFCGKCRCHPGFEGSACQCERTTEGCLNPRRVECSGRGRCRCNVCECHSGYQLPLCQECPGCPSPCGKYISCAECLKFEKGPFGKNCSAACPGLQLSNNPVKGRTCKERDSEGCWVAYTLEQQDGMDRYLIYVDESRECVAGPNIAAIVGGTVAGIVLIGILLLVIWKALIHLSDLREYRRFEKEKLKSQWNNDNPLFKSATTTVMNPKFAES

Row | Molecule | ICAM-2 adhesion measured by binding of ICAM-2-FITC (cell surface LFA-1; PKC inhibitor treated cells) | LFA-1 activation (mAb24 binding) (LFA-1) | Kd (cell surface LFA-1; Jurkat cells, 37° C., 30 min, curve fit analysis, read-out: dissociation constant of ICAM-2-FITC binding) [nM] | Kd (cell surface LFA-1; per 10^4 cells, read-out: calculated ICAM-2 affinity) [nM] | LFA-1 activation (mAb24 binding) (LFA-1; listed as full length ICAM-2)
1 | CN(C)CCCn1cc(C2=C(c3c[nH]c4ccccc34)C(=O)NC2=O)c2ccccc21 [bisindolymaleimide I] | not affected | inhibited ICAM-2 induced LFA-1 activation |  |  | 
2 | B1 |  | bimodal population in active LFA-1 | 210 ± 70 | 217 ± 66 | resulted in active LFA-1
